In US20230279138A1 (CHIA TAI TIANQING PHARMACEUTICAL GROUP, published 2023):

Legend:
[1] = biological target: T1, CD20 on Raji cells (CD20+/CD3- cells) (human, UniProt P11836 1-297); assay: cell-based or functional assay
T1 sequence (looked up): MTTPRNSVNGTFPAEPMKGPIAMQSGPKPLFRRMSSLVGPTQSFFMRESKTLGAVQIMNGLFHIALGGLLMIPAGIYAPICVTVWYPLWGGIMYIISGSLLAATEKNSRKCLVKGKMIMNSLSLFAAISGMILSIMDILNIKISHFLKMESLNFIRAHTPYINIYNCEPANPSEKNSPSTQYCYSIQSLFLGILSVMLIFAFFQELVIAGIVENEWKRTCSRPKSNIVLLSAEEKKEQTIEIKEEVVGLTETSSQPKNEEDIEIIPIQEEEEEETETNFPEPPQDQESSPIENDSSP

[2] = biological target: T1, CD20 on Raji cells (CD20+/CD3- cells); assay: cell-based or functional assay; remark: listed apart in the source
[3] = biological target: T1, CD20 on Raji cells (CD20+/CD3- cells); assay: cell-based or functional assay; remark: listed apart in the source
[4] = biological target: T1, CD20 on Raji cells (CD20+/CD3- cells); assay: cell-based or functional assay; remark: listed apart in the source
[5] = biological target: T2, CD3 on Jurkat cells (CD3+/CD20- cells) (human, UniProt P07766 23-207; P04234 22-171; P09693 23-182); assay: cell-based or functional assay
[6] = biological target: T1, CD20 on Raji cells (CD20+/CD3- cells); assay: flow cytometry on Raji cells (CD20+/CD3-)
[7] = biological target: T2, CD3 on Jurkat cells (CD3+/CD20- cells); assay: flow cytometry on Jurkat 2B8 cells (CD3+/CD20-)
[8] = biological target: T1, CD20 on Raji cells (CD20+/CD3- cells); assay: FACS on Raji cells after 14 days at 37 C in human serum
Procedure: (§1) After incubation, the cells were washed twice with cold 1% BSA/1×PBS. […] After being washed twice, the geometric mean fluorescence (MFI) of the stained cells was measured using a FACS Canto II […] (BD Biosciences). Wells containing no antibody or containing only fluorescent secondary antibody were used to establish background fluorescence. The EC50 values for cell binding were determined using GraphPad Prism 5 software (GraphPad Software, La Jolla, Calif.); each value was calculated by four-parameter non-linear regression analysis.
(§2) The antibody was mixed with freshly collected human serum and the proportion of serum in the mixture sample was ensured to be >95%. The mixture sample was aliquoted and incubated at 37° C. for 0-14 days. […] The bindings of each sample to Raji or Jurkat cells was analyzed by FACS.

[9] = biological target: T1, CD20 on Raji cells (CD20+/CD3- cells); assay: FACS on Raji cells after 0, 1, 4 or 7 days at 37 C in human serum
Procedure: as §1, §2

T2 sequence (P07766 23-207, chain 1 of 3): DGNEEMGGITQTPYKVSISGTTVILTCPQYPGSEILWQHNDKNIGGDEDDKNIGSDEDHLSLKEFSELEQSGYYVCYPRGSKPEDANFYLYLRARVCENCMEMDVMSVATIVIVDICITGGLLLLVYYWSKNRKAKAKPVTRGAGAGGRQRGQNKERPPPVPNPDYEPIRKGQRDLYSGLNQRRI
T2 sequence (P04234 22-171, chain 2 of 3): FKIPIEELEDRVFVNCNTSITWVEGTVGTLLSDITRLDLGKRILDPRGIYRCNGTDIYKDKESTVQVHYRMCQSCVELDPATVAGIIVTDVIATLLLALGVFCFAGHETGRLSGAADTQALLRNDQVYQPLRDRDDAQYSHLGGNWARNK
T2 sequence (P09693 23-182, chain 3 of 3): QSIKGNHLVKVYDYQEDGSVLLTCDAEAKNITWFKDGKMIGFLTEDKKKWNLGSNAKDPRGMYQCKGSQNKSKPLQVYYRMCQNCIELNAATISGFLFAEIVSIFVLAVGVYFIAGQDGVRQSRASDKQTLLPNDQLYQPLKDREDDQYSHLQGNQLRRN

B1: W3278-U2T3.F18R-1.uIgG4.SP (bispecific antibody)
heavy 1: QVQLQQPGAELVKPGASVKMSCKASGYTFTSYNMHWVKQTPGRGLEWIGAIYPGNGDTSYNQKFKGKATLTADKSSSTAYMQLSSLTSEDSAVYYCARSTYYGGDWYFNVWGAGTTVTVSAASTKGPSVFPLAPCSRSTSESTAALGCLVKDYFPEPVTVSWNSGALTSGVHTFPAVLQSSGLYSLSSVVTVPSSSLGTKTYTCNVDHKPSNTKVDKRVGGGGSGGGGSQVQLVQSGAEVKKPGSSVKVSCKASGFAFTDYYIHWVRQAPGQGLEWMGWISPGNVNTKYNENFKGRVTITADKSTSTAYMELSSLRSEDTAVYYCARDGYSLYYFDYWGQGTLVTVLEDLKNVFPPEVAVFEPSEAEISHTQKATLVCLATGFYPDHVELSWWVNGKEVHSGVCTDPQPLKEQPALQDSRYALSSRLRVSATFWQNPRNHFRCQVQFYGLSENDEWTQDRAKPVTQIVSAEAWGRYGPPCPPCPAPEFLGGPSVFLFPPKPKDTLMISRTPEVTCVVVDVSQEDPEVQFNWYVDGVEVHNAKTKPREEQFNSTYRVVSVLTVLHQDWLNGKEYKCKVSNKGLPSSIEKTISKAKGQPREPQVYTLPPCQEEMTKNQVSLWCLVKGFYPSDIAVEWESNGQPENNYKTTPPVLDSDGSFFLYSRLTVDKSRWQEGNVFSCSVMHEALHNHYTQKSLSLSLG
heavy 2: QVQLQQPGAELVKPGASVKMSCKASGYTFTSYNMHWVKQTPGRGLEWIGAIYPGNGDTSYNQKFKGKATLTADKSSSTAYMQLSSLTSEDSAVYYCARSTYYGGDWYFNVWGAGTTVTVSAASTKGPSVFPLAPCSRSTSESTAALGCLVKDYFPEPVTVSWNSGALTSGVHTFPAVLQSSGLYSLSSVVTVPSSSLGTKTYTCNVDHKPSNTKVDKRVESKYGPPCPPCPAPEFLGGPSVFLFPPKPKDTLMISRTPEVTCVVVDVSQEDPEVQFNWYVDGVEVHNAKTKPREEQFNSTYRVVSVLTVLHQDWLNGKEYKCKVSNKGLPSSIEKTISKAKGQPREPQVCTLPPSQEEMTKNQVSLSCAVKGFYPSDIAVEWESNGQPENNYKTTPPVLDSDGSFFLVSRLTVDKSRWQEGNVFSCSVMHEALHNHYTQKSLSLSLG
light 1: QIVLSQSPAILSASPGEKVTMTCRASSSVSYIHWFQQKPGSSPKPWIYATSNLASGVPVRFSGSGSGTSYSLTISRVEAEDAATYYCQQWTSNPPTFGGGTKLEIKRTVAAPSVFIFPPSDEQLKSGTASVVCLLNNFYPREAKVQWKVDNALQSGNSQESVTEQDSKDSTYSLSSTLTLSKADYEKHKVYACEVTHQGLSSPVTKSFNRGEC
light 2: DIVMTQSPDSLAVSLGERATINCKSSQSLLNSRTRKNYLAWYQQKPGQPPKLLIYWASTRQSGVPDRFSGSGSGTDFTLTISSLQAEDVAVYYCTQSHTLRTFGGGTKVEIKPDIQNPDPAVYQLRDSKSSDKSVCLFTDFDSQTQVSQSKDSDVYITDKCVLDMRSMDFKSNSAVAWSQKSDFACANAFQNSIIPEDTFFPSPESS
notes: Human IgG4 S228P, knobs-into-holes; also called WBP3278 lead Ab; W3278 lead Ab
cytotoxicity EC50, CD8+ T cells against NAMALWA cells (FACS) [1]: 0.0468 nM
cytotoxicity EC50, CD8+ T cells against Raji cells (FACS) [1]: 0.00052 nM
cytotoxicity EC50, CD8+ T cells against Ramos cells (FACS) [1]: 0.00125 nM
EC50 of CD25 expression, CD4+ T cells with Raji cells [2]: 0.0006 nM
EC50 of CD25 expression, CD8+ T cells with Raji cells [2]: 0.0008 nM
EC50 of CD69 expression, CD4+ T cells with Raji cells [3]: 0.0002 nM
EC50 of CD69 expression, CD8+ T cells with Raji cells [3]: 0.0004 nM
EC50 of IL-2 release, CD4+ T cells with Raji cells [4]: 0.0114 nM
EC50 of TNF-α release, CD4+ T cells with Raji cells [4]: 0.0135 nM
EC50 ratio IL-2 release/Raji cell killing [4]: 22
EC50 ratio TNFα release/Raji cell killing [4]: 26
Biological activity (%) (EC50 of reference/EC50 of test sample; Jurkat luciferase reporter with Raji cells), lyophilized formulation, T0 [5]: 114%
EC50 [6]: 2.5 nM
TOP MFI [6]: 66700 MFI
EC50 [7]: 41.7 nM
TOP MFI [7]: 4080 MFI
EC50 (read off the curve) [8]: ~6 nM
EC50 (read off the curve) [9]: ~6 nM
